These are literature values, as cited in article PMC9074927.

Where two headings read alike, the source gives them in different places.

The target in data set [1] is histone H3 (Homo sapiens) (UniProt P68431).
For data set [2] the target is unchanged. The source holds these as a separate data set.

With CBX1 chromodomain (from UniProt P83916), the Kd (in general, the constant that tells how readily two partners part at equilibrium) in data set [1] is 600 nM. For the substance “CBX1 eReader chromodomain (from UniProt P83916)”, the Kd in data set [2] was 130 nM.
